Here are results for 2 molecules from paper doi:10.1101/2025.08.18.670856.

For test [1], the target named is FetA-HIS (wild type, from the plasmid AHSG-bio-His) (human) (UniProt P02765). Briefly: SPR. A general note: Surface plasmon resonance follows binding to a sensor surface in real time, without labels.
Test [2] concerns the target HIF-1α wild type used in SPR: C-terminal domain (CTD) of hypoxia-stable HIF-1α (579-826 residues) (human) (UniProt Q16665). In words: SPR.

One may read the Kd as the equilibrium constant for the complex coming apart. A lower Kd goes with higher affinity. Consider “HIF-1α 743D>L point mutant (from UniProt Q16665 1-826) (natural protein)”, for which the Kd in test [1] was 90 nM.

B1: FetA-HIS (wild type, from the plasmid AHSG-bio-His) (natural protein)
chain: APHGPGLIYRQPNCDDPETEEAALVAIDYINQNLPWGYKHTLNQIDEVKVWPQQPSGELFEIEIDTLETTCHVLDPTPVARCSVRQLKEHAVEGDCDFQLLKLDGKFSVVYAKCDSSPDSAEDVRKVCQDCPLLAPLNDTRVVHAAKAALAAFNAQNNGSNFQLEEISRAQLVPLPPSTYVEFTVSGTDCVAKEATEAAKCNLLAEKQYGFCKATLSEKLGGAEVAVTCMVFQTQPVSSQPQPEGANEAVPTPVVDPDAPPSPPLGAPGLPPAGSPPDSHVLLAAPPGHQLHRAHYDLRHTFMGVVSLGSPSGEVSHPRKTRTVVQPSVGAAAGPVVPPCPGRIRHFKV
Take B1: in test [2], the Kd was 23.4 nM.
